Test results: paper PMC12224427, “The non-metabolic function of 6PGD coordinates CCNA2 and HMGA2 expression to drive colorectal cancer progression and drug response” (Journal of Experimental & Clinical Cancer Research : CR, 2025)

Biological target: T1, recombinant 6PGD (re6PGD) (UniProt P52209 1-483)
T1 construct: 6-phosphogluconate dehydrogenase (6PGD), wild type; source: bacterially expressed recombinant
T1 sequence (looked up): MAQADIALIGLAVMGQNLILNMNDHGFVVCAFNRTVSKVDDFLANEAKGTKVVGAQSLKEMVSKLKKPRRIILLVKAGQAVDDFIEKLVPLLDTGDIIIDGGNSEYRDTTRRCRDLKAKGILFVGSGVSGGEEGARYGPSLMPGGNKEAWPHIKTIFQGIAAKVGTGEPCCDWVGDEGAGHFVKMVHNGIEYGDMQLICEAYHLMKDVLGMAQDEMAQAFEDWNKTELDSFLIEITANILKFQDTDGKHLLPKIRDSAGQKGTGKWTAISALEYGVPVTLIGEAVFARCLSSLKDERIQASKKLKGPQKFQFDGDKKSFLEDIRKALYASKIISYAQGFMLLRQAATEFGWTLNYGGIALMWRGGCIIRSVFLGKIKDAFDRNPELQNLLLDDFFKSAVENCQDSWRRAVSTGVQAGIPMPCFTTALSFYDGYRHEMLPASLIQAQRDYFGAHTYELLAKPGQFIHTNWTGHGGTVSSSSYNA
Assay: MST; microscale thermophoresis of 6PGD and ALKBH5 (Fig. S5A); conditions not shown
Details: both partners purified

B1: recombinant ALKBH5 (reALKBH5; aa:66–292) (domain or fragment, UniProt Q6P6C2 66-292, looked up)
chain: PERSDYEEQQLQKEEEARKVKSGIRQMRLFSQDECAKIEARIDEVVSRAEKGLYNEHTVDRAPLRNKYFFGEGYTYGAQLQKRGPGQERLYPPGDVDEIPEWVHQLVIQKLVEHRVIPEGFVNSAVINDYQPGGCIVSHVDPIHIFERPIVSVSFFSDSALCFGCKFQFKPIRVSEPVLSLPVRRGSVTVLSGYAADEITHCIRPQDIKERRAVIILRKTRLDAPRL
notes: ALKBH5, residues 66-292; The range 66-292 is printed where the in vitro methylation assay is told; source: recombinant
  Kd: 1.63 µM
